“And” between values parts separate entries of the source, which are not always exact repeats. Equal entries are not always repeated. Where two headings read alike, the source gives them in different places.
How the values were obtained:
[1] = target: feline CTLA-4 in feline CD5+ leucocytes (feline) (UniProt Q9XTA1); assay: flow cytometry, feline PBMC, Surface labeling, anti-HA secondary alone, gated Lymphocytes>Single cells>Live>CD5+
[2] = target: full length canine CTLA-4 on cells (KTδ32.cCTLA-4 cells; canine T cells and regulatory T cells) (canine) (UniProt Q9XSI1)
[3] = target: full length canine CTLA-4 on cells (KTδ32.cCTLA-4 cells; canine T cells and regulatory T cells) (canine) (UniProt Q9XSI1); remark: listed apart in the source
[4] = target: full length canine CTLA-4 on cells (KTδ32.cCTLA-4 cells; canine T cells and regulatory T cells) (canine) (UniProt Q9XSI1); remark: listed apart in the source
[5] = target: feline CTLA-4 in feline CD5+ leucocytes (feline) (UniProt Q9XTA1)
[6] = target: feline CTLA-4 in feline CD5+ leucocytes (feline) (UniProt Q9XTA1); remark: listed apart in the source

Row | Substance | % of gated cells in the CTLA4 gate [1] | % of cells in the CTLA4(HA.APC) gate [2] | % of gated cells in Q5 (CTLA4+ CD4-) [3] | % of gated cells in Q6 (CTLA4+ CD4+) [3] | % of gated cells in the CTLA4 gate [4] | % of gated cells in the CTLA4 gate [5] | % of gated cells in the CTLA4 gate [6]
1 | 2nd only (anti-HA secondary alone) | 3.8% |  |  |  |  |  | 
2 | irrelevant MERS mAb (antibody) |  | 4.23% and 1.9% | 0.014% and 4.28% and 0.42% | 0.72% and 5.32% and 0.68% | 8.33% and 0% | 0.5% | 0.13%
